Test results published in patent US20140287434.

Key:
[1] = target: T1, Peptide B
T1 chain: EQEDEPEGIYGVLF

[2] = target: T2, biotinylated PLCγ1 SH2C-Peptide B fusion protein, P10686
T2 chain: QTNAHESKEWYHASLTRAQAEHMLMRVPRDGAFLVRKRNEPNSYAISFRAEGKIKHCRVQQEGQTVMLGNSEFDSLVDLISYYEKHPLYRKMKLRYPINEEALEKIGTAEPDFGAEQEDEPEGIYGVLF

[3] = target: Grb2 SH2 domain
[4] = target: T3, PLCγ1 SH2C -Y783-, P10686
T3 chain: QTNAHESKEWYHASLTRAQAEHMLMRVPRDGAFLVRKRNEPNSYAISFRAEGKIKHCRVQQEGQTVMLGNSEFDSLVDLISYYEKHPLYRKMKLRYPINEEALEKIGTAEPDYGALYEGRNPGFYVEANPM

[5] = target: T4, Itk SH3, Q03526
T4 chain: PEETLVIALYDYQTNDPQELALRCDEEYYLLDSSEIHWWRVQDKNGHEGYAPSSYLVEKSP

[6] = target: N-terminal Phosphatidylinositol 3-Kinase (p85α) SH2 domain (PI3K SH2)
[7] = target: Itk SH3-SH2 (Itk 32), Q03526
[8] = target: T5, Itk SH3-Linker (Itk 3Linker), Q03526
T5 chain: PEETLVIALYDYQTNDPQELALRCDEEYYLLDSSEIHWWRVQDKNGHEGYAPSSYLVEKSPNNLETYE

[9] = target: T6, PLCγ1 -Y783-SH3, P10686
T6 chain: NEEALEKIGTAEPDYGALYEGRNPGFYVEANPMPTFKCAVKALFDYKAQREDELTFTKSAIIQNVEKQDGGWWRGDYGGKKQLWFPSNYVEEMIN

[10] = target: T7, free Itk SH2 domain, Q03526
T7 chain: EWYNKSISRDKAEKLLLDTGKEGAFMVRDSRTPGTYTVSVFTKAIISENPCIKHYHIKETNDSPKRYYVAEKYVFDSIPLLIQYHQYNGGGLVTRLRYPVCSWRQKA

[11] = target: T8, free PLCγ1 SH2C domain, P10686
T8 chain: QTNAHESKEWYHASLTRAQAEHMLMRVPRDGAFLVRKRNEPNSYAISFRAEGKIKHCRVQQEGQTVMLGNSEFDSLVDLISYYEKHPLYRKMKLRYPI

[12] = tested on: Tec SH3-SH2 (Tec 32)
[13] = tested on: Tec SH3
[14] = target: full-length wild-type Lck

Grb2 SH2 domain, sequence (chain, as listed by the source): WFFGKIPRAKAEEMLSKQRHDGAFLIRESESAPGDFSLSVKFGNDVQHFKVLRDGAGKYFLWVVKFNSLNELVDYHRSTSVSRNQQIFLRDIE

B1: FLAG-tagged Itk LKD enzyme (protein)
chain: CSWRQKAPVTAGLRYGKWVIQPSELTFVQEIGSGQFGLVHLGYWLNKDKVAIKTIQEGAMSEEDFIEEAEVMMKLSHPKLVQLYGVCLEQAPICLVFEFMEHGCLSDYLRSQRGLFAAETLLGMCLDVCEGMAYLEKACVIHRDLAARNCLVGENQVIKVSDFGMTRFVLDDQYTSSTGTKFPVKWASPEVFSFSRYSSKSDVWSFGVLMWEVFSEGKIPYENRSNSEVVEDISTGFRLYKPRLASCHVYQIMNHCWKEKPEDRPPFSQLLSQLAEIAEAGL
Km [1]: 87 µM for Peptide B alone | Km [2]: 5.64 µM for the SH2-Peptide B fusion | fold increase in substrate affinity against Peptide B alone [2]: exhibiting a 15-fold increase in substrate affinity | kcat/Km against Peptide B alone [2]: Peptide B is a better substrate by 7-fold (kat/Km) when tethered to the SH2 domain of PLCγ1

B2: FLAG-tagged Itk full-length (FLItk) enzyme (protein)
chain: MNNFILLEEQLIKKSQQKRRTSPSNFKVRFFVLTKASLAYFEDRHGKKRTLKGSIELSRIKCVEIVKSDISIPCHYKYPFQTLVYLQVVHDNYLLYVFAPDCESRQRWVLTLKEETRNNNSLVSKYHPNFWMDGRWRCCSQLEKPAVGCAPYDPSKNASKKPLPPTPEDNRRSFQEPEETLVIALYDYQTNDPQELALRCDEEYYLLDSSEIHWWRVQDKNGHEGYAPSSYLVEKSPNNLETYEWYNKSISRDKAEKLLLDTGKEGAFMVRDSRTPGTYTVSVFTKAIISENPCIKHYHIKETNDSPKRYYVAEKYVFDSIPLLIQYHQYNGGGLVTRLRYPVCSWRQKAPVTAGLRYGKWVIQPSELTFVQEIGSGQFGLVHLGYWLNKDKVAIKTIQEGAMSEEDFIEEAEVMMKLSHPKLVQLYGVCLEQAPICLVFEFMEHGCLSDYLRSQRGLFAAETLLGMCLDVCEGMAYLEKACVIHRDLAARNCLVGENQVIKVSDFGMTRFVLDDQYTSSTGTKFPVKWASPEVFSFSRYSSKSDVWSFGVLMWEVFSEGKIPYENRSNSEVVEDISTGFRLYKPRLASCHVYQIMNHCWKEKPEDRPPFSQLLSQLAEIAEAGL
phosphorylation of Itk 32 and PLCγ1 SH2C -Y783- by full-length Itk [3]: two different control SH2 domains (derived from PI3K and Grb2) do not inhibit the phosphorylation of the substrates even at large molar excess | phosphorylation on Y783 in an in vitro kinase assay [4]: only substrates that contain both the site of phosphorylation (Y180 for Itk, Y187 for Tec, Y223 for Btk, and Y783 for PLCγ1) and the adjacent SH2 domain are phosphorylated by the Tec kinases | phosphorylation on Y180 in an in vitro kinase assay [5]: the isolated SH3 domain does not serve as a substrate for full length Itk | phosphorylation of Itk 32 and PLCγ1 SH2C -Y783- by full-length Itk [6]: two different control SH2 domains (derived from PI3K and Grb2) do not inhibit the phosphorylation of the substrates even at large molar excess | phosphorylation on Y180 in an in vitro kinase assay [7]: only substrates that contain both the site of phosphorylation (Y180 for Itk, Y187 for Tec, Y223 for Btk, and Y783 for PLCγ1) and the adjacent SH2 domain are phosphorylated by the Tec kinases | phosphorylation on Y180 in an in vitro kinase assay [8]: Only Itk fragments that contain the SH2 domain and Y180 are phosphorylated by Itk | phosphorylation on Y783 in an in vitro kinase assay [9]: is not phosphorylated by full length Itk | autophosphorylation of Tyr 180 within full length Itk [10]: autophosphorylation at this site is greatly diminished upon addition of free Itk SH2 domain | initial velocity of peptide B phosphorylation by full length Itk [10]: do not change significantly with increasing concentrations of Itk SH2 domain | phosphorylation of Itk 32 substrate on Y180 by full-length Itk (anti-pY180 blot) [10]: free Itk SH2 domain competes with the Itk 32 substrate | phosphorylation of PLCγ1 SH2C -Y783- substrate by full-length Itk (anti-pY783 blot) [11]: The PLCγ1 SH2 domain competes with the PLCγ1 substrate in a similar manner

B3: FLAG-tagged Tec full-length enzyme (enzyme, UniProt P42680 1-631, looked up, species assumed)
chain: MNFNTILEEILIKRSQQKKKTSPLNYKERLFVLTKSMLTYYEGRAEKKYRKGFIDVSKIKCVEIVKNDDGVIPCQNKYPFQVVHDANTLYIFAPSPQSRDLWVKKLKEEIKNNNNIMIKYHPKFWTDGSYQCCRQTEKLAPGCEKYNLFESSIRKALPPAPETKKRRPPPPIPLEEEDNSEEIVVAMYDFQAAEGHDLRLERGQEYLILEKNDVHWWRARDKYGNEGYIPSNYVTGKKSNNLDQYEWYCRNMNRSKAEQLLRSEDKEGGFMVRDSSQPGLYTVSLYTKFGGEGSSGFRHYHIKETTTSPKKYYLAEKHAFGSIPEIIEYHKHNAAGLVTRLRYPVSVKGKNAPTTAGFSYEKWEINPSELTFMRELGSGLFGVVRLGKWRAQYKVAIKAIREGAMCEEDFIEEAKVMMKLTHPKLVQLYGVCTQQKPIYIVTEFMERGCLLNFLRQRQGHFSRDVLLSMCQDVCEGMEYLERNSFIHRDLAARNCLVSEAGVVKVSDFGMARYVLDDQYTSSSGAKFPVKWCPPEVFNYSRFSSKSDVWSFGVLMWEVFTEGRMPFEKYTNYEVVTMVTRGHRLYQPKLASNYVYEVMLRCWQEKPEGRPSFEDLLRTIDELVECEETFGR
modifications: full-length FLAG tag
phosphorylation on Y187 in an in vitro kinase assay [12]: only substrates that contain both the site of phosphorylation (Y180 for Itk, Y187 for Tec, Y223 for Btk, and Y783 for PLCγ1) and the adjacent SH2 domain are phosphorylated by the Tec kinases | phosphorylation on Y187 in an in vitro kinase assay [13]: are not phosphorylated by the Tec and Btk kinases

B4: FLAG-tagged Itk kinase domain (Itk KD) (protein)
chain: VIQPSELTFVQEIGSGQFGLVHLGYWLNKDKVAIKTIQEGAMSEEDFIEEAEVMMKLSHPKLVQLYGVCLEQAPICLVFEFMEHGCLSDYLRSQRGLFAAETLLGMCLDVCEGMAYLEKACVIHRDLAARNCLVGENQVIKVSDFGMTRFVLDDQYTSSTGTKFPVKWASPEVFSFSRYSSKSDVWSFGVLMWEVFSEGKIPYENRSNSEVVEDISTGFRLYKPRLASCHVYQIMNHCWKEKPEDRPPFSQLLSQLAEIAEAGL
phosphorylation of Itk 32 by the isolated Itk kinase domain (anti-pY180 blot) [7]: The Itk catalytic fragment leads to substrate phosphorylation

B5: Catalytically inactive (K390R) Itk kinase domain (KD) (protein)
chain: VIQPSELTFVQEIGSGQFGLVHLGYWLNRDKVAIKTIQEGAMSEEDFIEEAEVMMKLSHPKLVQLYGVCLEQAPICLVFEFMEHGCLSDYLRSQRGLFAAETLLGMCLDVCEGMAYLEKACVIHRDLAARNCLVGENQVIKVSDFGMTRFVLDDQYTSSTGTKFPVKWASPEVFSFSRYSSKSDVWSFGVLMWEVFSEGKIPYENRSNSEVVEDISTGFRLYKPRLASCHVYQIMNHCWKEKPEDRPPFSQLLSQLAEIAEAGL
phosphorylation of Itk Y511 by Lck (Btk phosphoY551 antibody blot) [14]: phosphorylation of the Itk kinase domain alone (on Y511) by Lck is very inefficient

B6: Catalytically inactive (K390R) Itk SH2-kinase domain (2KD) (protein)
chain: EWYNKSISRDKAEKLLLDTGKEGAFMVRDSRTPGTYTVSVFTKAIISENPCIKHYHIKETNDSPKRYYVAEKYVFDSIPLLIQYHQYNGGGLVTRLRYPVCSWRQKAPVTAGLRYGKWVIQPSELTFVQEIGSGQFGLVHLGYWLNRDKVAIKTIQEGAMSEEDFIEEAEVMMKLSHPKLVQLYGVCLEQAPICLVFEFMEHGCLSDYLRSQRGLFAAETLLGMCLDVCEGMAYLEKACVIHRDLAARNCLVGENQVIKVSDFGMTRFVLDDQYTSSTGTKFPVKWASPEVFSFSRYSSKSDVWSFGVLMWEVFSEGKIPYENRSNSEVVEDISTGFRLYKPRLASCHVYQIMNHCWKEKPEDRPPFSQLLSQLAEIAEAGL
phosphorylation of Itk Y511 by Lck (Btk phosphoY551 antibody blot) [14]: Lck phosphorylation of the SH2-kinase fragment of Itk proceeds readily
